# From publication PMC4359790
# Target: bovine fetuin (bovine) (UniProt P12763)
# Assay: Corning Epic label-free (resonant waveguide grating, Enspire reader)
row,Substance,response (change in wavelength) at 20 μg/ml rHA [pm]
1,recombinant hemagglutinin (rHA) of A/Brisbane/59/2007 (H1N1) (natural protein; modification not given),80
2,recombinant hemagglutinin (rHA) of A/Hangzhou/3/2013 (H7N9) (natural protein),80
3,recombinant hemagglutinin (rHA) of B/Brisbane/60/2008 (natural protein),140
